Experimental findings from patent US20170240645A1 (Genentech, published 2017) are described below.

Test [1] has as its target T1, PMEL17 N-terminal deletion mutant Δ255 (human, UniProt P40967 256-661).
T1 construct: the real construct lacks the N-terminal part; Tested in cell lysates by immunoblot
T1 sequence: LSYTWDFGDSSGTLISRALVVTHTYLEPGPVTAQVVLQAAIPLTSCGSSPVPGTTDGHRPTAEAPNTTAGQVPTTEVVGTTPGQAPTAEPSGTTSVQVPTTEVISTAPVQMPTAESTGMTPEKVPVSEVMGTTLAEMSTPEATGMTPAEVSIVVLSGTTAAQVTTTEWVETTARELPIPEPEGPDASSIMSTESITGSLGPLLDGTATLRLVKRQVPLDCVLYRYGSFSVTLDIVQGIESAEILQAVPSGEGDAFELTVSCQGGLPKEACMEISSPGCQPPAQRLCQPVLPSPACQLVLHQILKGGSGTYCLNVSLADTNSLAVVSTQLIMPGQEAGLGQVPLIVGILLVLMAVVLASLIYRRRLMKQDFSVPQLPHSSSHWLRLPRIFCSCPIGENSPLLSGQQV
The test can be described thus: immunoblot of cell lysates. In general terms: A western blot detects proteins with antibodies after separation by electrophoresis.

Test [2] deals with T2, full-length human PMEL17 with an N-terminal gD tag (human, UniProt P40967 25-661).
T2 construct: it is left out here; also called full-length PMEL17; N-terminal gD tagged PMEL17 (human)
T2 sequence: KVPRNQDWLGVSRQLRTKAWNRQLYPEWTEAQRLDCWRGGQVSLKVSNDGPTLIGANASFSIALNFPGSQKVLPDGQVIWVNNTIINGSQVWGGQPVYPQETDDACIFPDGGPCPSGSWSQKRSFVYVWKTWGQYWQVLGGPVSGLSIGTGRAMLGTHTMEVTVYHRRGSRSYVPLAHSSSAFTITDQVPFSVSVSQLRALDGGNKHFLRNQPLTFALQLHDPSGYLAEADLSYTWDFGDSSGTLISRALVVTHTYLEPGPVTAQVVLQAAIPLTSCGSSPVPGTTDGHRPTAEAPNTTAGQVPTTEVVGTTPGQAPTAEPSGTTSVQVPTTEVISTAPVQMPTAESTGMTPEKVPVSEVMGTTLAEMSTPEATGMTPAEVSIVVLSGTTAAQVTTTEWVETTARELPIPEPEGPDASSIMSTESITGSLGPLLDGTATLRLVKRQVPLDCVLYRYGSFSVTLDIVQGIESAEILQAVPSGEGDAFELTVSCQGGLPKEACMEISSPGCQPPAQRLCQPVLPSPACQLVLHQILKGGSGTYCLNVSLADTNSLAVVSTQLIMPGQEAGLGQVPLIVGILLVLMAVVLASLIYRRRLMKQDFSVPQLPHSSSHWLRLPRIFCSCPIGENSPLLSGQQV
Kind of test: immunoblot of cell lysates.

In test [3] the target is T3, cynomolgus monkey PMEL17 with an N-terminal gD tag (cynomolgus monkey, UniProt P40967 25-661 (human entry)).
T3 construct: On stably transfected 293S cells; also called N-terminal gD tagged PMEL17 (cynomolgus monkey)
T3 chain: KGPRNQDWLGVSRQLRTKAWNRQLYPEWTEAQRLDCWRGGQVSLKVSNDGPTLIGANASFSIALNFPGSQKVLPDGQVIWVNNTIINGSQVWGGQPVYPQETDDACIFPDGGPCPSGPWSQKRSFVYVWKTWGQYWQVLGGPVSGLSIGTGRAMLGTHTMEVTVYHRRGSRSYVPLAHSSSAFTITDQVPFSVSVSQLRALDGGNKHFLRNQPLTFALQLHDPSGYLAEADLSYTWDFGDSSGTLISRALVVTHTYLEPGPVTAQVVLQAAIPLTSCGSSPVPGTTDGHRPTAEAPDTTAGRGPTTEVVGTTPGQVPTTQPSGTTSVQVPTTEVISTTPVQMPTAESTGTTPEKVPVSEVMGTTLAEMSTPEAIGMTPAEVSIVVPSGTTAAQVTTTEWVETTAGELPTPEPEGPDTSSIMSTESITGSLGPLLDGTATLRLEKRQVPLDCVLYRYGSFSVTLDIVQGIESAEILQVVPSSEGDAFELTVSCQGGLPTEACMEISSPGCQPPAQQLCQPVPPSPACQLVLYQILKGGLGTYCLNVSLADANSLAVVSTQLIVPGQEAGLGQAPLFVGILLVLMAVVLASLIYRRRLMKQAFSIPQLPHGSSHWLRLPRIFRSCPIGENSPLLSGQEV
Kind of test: FACS, 293S cells stably transfected with gD tagged PMEL17, 10 µg/ml 17A9. As to the method: (§1) Antibody 17A9 was tested to determine if it cross-reacts with PMEL17 from species other than human. […] All of the sequences include the signal sequence except for the cynomolgus monkey PMEL17. Residues that are identical among all four species are indicated by asterisks (*). In the region where the rat sequence has a deletion, residues that are identical among the remaining three species are indicated by a plus (+). Binding to each species of PMEL17 was determined by FACS analysis using 293S cells stably transfected with an N-terminal gD tagged PMEL17 (human, cynomolgus monkey, rat, or mouse PMEL17); stained with 10 μg/ml 17A9 antibody; and detected with R-Phycoerythrin conjugated goat anti-mouse antibody.

Test [4] addresses T4, mouse PMEL17 with an N-terminal gD tag (mouse, UniProt Q60696 26-626).
T4 construct: On stably transfected 293S cells; also called N-terminal gD tagged PMEL17 (mouse)
T4 sequence: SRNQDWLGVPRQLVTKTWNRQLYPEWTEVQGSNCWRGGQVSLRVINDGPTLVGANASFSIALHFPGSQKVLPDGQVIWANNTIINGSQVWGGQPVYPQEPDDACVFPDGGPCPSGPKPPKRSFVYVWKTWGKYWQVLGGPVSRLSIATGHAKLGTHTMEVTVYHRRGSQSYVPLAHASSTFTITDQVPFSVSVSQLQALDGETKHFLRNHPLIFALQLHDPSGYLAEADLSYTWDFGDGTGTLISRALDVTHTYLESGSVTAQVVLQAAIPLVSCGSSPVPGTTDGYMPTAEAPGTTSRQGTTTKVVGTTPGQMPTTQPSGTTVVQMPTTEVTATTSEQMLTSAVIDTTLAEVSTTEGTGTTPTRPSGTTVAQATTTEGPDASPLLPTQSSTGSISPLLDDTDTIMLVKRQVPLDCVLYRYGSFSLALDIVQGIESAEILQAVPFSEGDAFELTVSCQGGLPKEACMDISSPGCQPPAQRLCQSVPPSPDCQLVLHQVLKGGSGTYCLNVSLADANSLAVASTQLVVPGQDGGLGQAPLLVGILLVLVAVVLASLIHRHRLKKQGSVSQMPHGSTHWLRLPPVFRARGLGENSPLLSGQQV
The test is described as above. As to the method: as §1

B1: 17A9 (antibody, V domains shown)
VH: EVQLQQSGPELVKPGASMKISCKSSGYSFTRYTMNWVKQSHGKNLEWIGVINPYNGGTVYNQKFKGKATLTVDKSSSTAYMELLSLTSEDSAVYYCARTDYDGYAMDYWGQGTSVTVSS
VL: DVQITQSPSYLAASPGETITINCRATKSISKYLAWYQEQPGKTNNLLIYSGSTLQSGIPSRFSGSGSGTDFTLTISSLEPEDFAMYYCQQHNEYPYTFGSGTKLEIK
notes: Mouse monoclonal antibody from a hybridoma (mice immunized with PMEL17 ECD-Fc); also called anti-PMEL17 antibody 17A9
B1: the binding result in test [1] was “no binding”; in test [2], “binds”; in test [3], “binds”; in test [4], “binds”.
